According to doi:10.1101/2023.12.08.570755:

Molecular target: activation domain of SRC-3 (ACTR), labelled with AlexaFluor 647, with a ssDNA handle
Assay: FRET or BRET

## nuclear-coactivator binding domain of the CBP/p300 transcription factor (NCBD), labelled with LD750 (domain or fragment)
  most likely lifetime of the intermediate state (transient encounter complex), τi: 96 μs
